According to the DeepSol protein solubility set:

Test: soluble on expression in E. coli; label from the status in PepcDB or PDB records

Sequence: MAHHHHHHMDSPTEFSCGTQWDDDRRGEEPLLPELTLHGCGLRNLSLIVRGAQGAVYSAHDENGNRFAVKRLFTQRSDFGIRGVSEGALREATLLTLVRQEMEKLVHDTAFDVVRLQGVVEAPYKELCLILEYCSLDLSQVVVKSKRHTRSFPLVAEGPQVRCPVLSNMGVVRYLLRGILQILNNLHVNCRIIHRDVKLSNFLVRGDGSVRLSDFGSARLLHETVEEKEAAECVTSDPQDEDEVDCSDPFSHSCEGYTPAAQRTTLIYQAPECLLGERTYTTAVDVWAVGIVFAEILLQRHLFRSVNELTLISDIWRLLGTPSTKGEDPNIQGTNGVTFAAPTEPTVDVKFNDDIVSPEGRDLLKKMLEVDPKKRVTAADALRHSFLTSVDAQLSLKEAPALWREKVKECLEGGTQAVPMGAPFLALDDDEEEEEEEEDVDMNMATL
- soluble on expression in E. coli: not soluble

Sequence: MINDIKILGVGGSPRKNGNTDVLLDSFLKGAESAGVETKKVLLRDYSIEPCIGCERCRKTGTCTRFHDGMSLLYPEIEAAKGLTLGSPTYNYNVTALMKAFIDRLYPYYNFTNVRPRRYSSKLAGQGRKAIVFSVCEQLEIEEMGFTLGALGMPLEALGYEIVEKFPVTGYFDRGAVSRDEELLRKTFEAGKKMAEALHLEHHHHHH
- soluble on expression in E. coli: not soluble

Sequence: MIKAIIFDVDETLVYYEGYSLREWYEKVGLPAMKELGVIVDWEIFRKMARGELPRSYVEKFQINHVKFWKALDEANRKYREELLKEGKVHTFKDVEALKEIKNLGIKLAAVSNASQDNTELVLRAFDLLKYFDVVYGKDYTYLDGVKPNPYLINKALKALNVEPKEAILVGDSELDIIAGKRAKLRVVQIVREKRVEGADVYINSLWELVDKLKTGEL
- soluble on expression in E. coli: soluble

Sequence: MSLKKIKRITAYQVDLPLHEGSYNWSGGKTVNIFDSTIVAIETDDGLIGYGECCPLGPFYLPSYAEGVRAGIKELGPHLIGLDATDHSYINMVMDQCLKGHPYVKSPIDIACWDIKGKAANMPISKLLGGTYDEDFVLYRAISQNEPDAMASNVKKYRDEGYRRFQLKVGGSPNEDIERIRSVASKLEDGDKLIADANTGWLAHEALRVIRAVNDIDVYIEQPCQSYEECLSVRQKTTHPFILDESVKNIGVLVRGYHDKAMDAVNIKISKFGGITKAVLARDLCTELGIAMTIEDSWGGDIVTATIAHLAHSTQPKLLFTATDFNSYVTVHIADGAPQRNNGRMKSSGEGHHHHHH
- soluble on expression in E. coli: not soluble

Sequence: MVKLLTINSHSWMEEDPQKKLEILGKTILENDYDVICVQEVNQLLHSEPAKDLPNYCQVAGTPAIHKDNYALQLVTFLLEQERVYYWSWAYNHIGYDRFQEGVAILSKTPLVSQGILISDVDDEHDYHTRRALLGKTKIDQEDIAIVSLHMSWWNKGFQGEWNKLERVLSNLKLPLLLMGDFNNPYENEGYQAILKSSLKLQDSHQSAKITYGKATIQKEIDGWQGNQEALKVDYVFLSSDWQVEKSEVIFDGKHYPMISDHCGLACQANLNK
- soluble on expression in E. coli: not soluble

Sequence: TRAFKWTTNFNISFNKNKVLALSENQTALLTAAQFDQNYNGQSSYIAKVGLPMGLMYGYVYEGTYKYDDFNKSGNSYSLKPGVPHYSTETNTQPGMPKYADLNGDGVVDSNDRTIIGRGLPIHTGGFTNNFEYKGIDLSIFFQWSYGNDIMNANRLFFESSNNRSRELNQFASYANRWTPENPTSDIPAATNSSSNRVISSRIIEDGSYLRLKNVTVGYTFPAKLVKKWKIDKARVYVAAQNLWTCTGYSGYDPEVSVRNSALTPGLDYSSYPRAYSISFGVSLGF
- soluble on expression in E. coli: not soluble

Sequence: MCMDRIEKLIKKVSKPARLSVERCRLYTESMKQTEGEPMIIRQAKALKHVLENIPIQILDSELIVGTMLPNPPGAIIFPEGVGLRIINELDSLPNRETNRLMVDEEDAKVLREEIAPYWQRKTIEAFAFPLMPDIMQILYTGSVFVLTEIAGISHVAVNYPYLLRRGFRWFLEESERRIRALEESGVYEGEKYSFYQAAKIVSEAVINYGLRYSKLAEELAESEDGERREELLKIAEICRKVPAEKPETFWEAVQFVWLVQSALHQENYEQAISMGRIDQYLYPFFKKDIGEGRINRELAFDILANLWIKTNEIVPAFDSLLEQYFSGQATNQAVTIGGCDIYGNDATNELTYLMLEVTDRLRLRQPNVHVRINKGSPESFLKRLAEAISSGCNNLALFFDDAAVKALKNAEVDDRDALNYTTDGCVEIAPFGNSFTSSDAALINVAKALEYALNEGVDLQFGYEFGAKTEKPKFLEDLLEKLREQVSHIVKLVVRGSNVLSYANAEVKPTPLLSLCVEDCFEKGVDVSRGGARYNFTGIQAVGIADVGDSLVAIEGALNAGYSMDDIVEACRKNFVGYEKLHKLLLQSPKYGNDDDAADKYTKMVLEWYCEEVNRHRNFRGGKFAAGCYPMTTNVGFGFFTSALPSGRKSGEPLNPGVSPSTGMDREGVTAVINSASKLSYENLPNGASLTINLSSDVLGEKGDAVIEALIKSSMELGVMHVQFNILKEDLLRKAQQEPEKYRWLLVRVAGWSAYFVELSRPVQEEVIRRISCRI
- soluble on expression in E. coli: soluble

Sequence: MIPRVRAPELPQNYPWLNTEQPLSIKQLNGRVVILDFWTYCCINCLHVLPDLKYLEQKYKDSLTVIGVHSAKFDNEQETENIRQAILRYDIEHPVLVDKDFRVWQEYAVRAWPTLMVIDPKGYVIGYVSGEGNRDKLDQLITQVIQEHQGAINFQQLSLTLEKQRQPLITPLAFPGKVLATPSGLFVADSGHHRIVVSDFNGEILHLIGNGKSGLTDGNFQEAQFSAPQGMAFDMENQILYLADTENHALRRVDINQQTVETIAGTGEQSRNIQPHGGVGLETALNSPWDLVNIENSLYIAMAGVHQIWQMDLASGVIKTYAGTGVEACLDASLTESAFAQPSGITNNEQELYIADSEISSIRGVGLVEPQEVRTVCGSGGLFGFGDVDGQGEDVRLQHCLGVEYFQNYLWVADTYNHKIKSVSPHTGNCQTVLGDGLAGLQNGQGKNTRFFEPSGLSAIDSYLYISDTNNHVIRRVDLRTLEVTTMQFNGLCAPDVCIPNNFLEHHHHHH
- soluble on expression in E. coli: not soluble

Sequence: MTSMATPHVAGIAALLLQAHPSWTPDKVKTALIETADIVKPDEIADIAYGAGRVNAYKAINYDNYAKLVFTGYVANKGSQTHQFVISGASFVTATLYWDNANSDLDLYLYDPNGNQVDYSYTAYYGFEKVGYYNPTDGTWTIKVVSYSGSANYQVDVVSDGSLSQPGSSPSPQPEPTVDAKTFQGLEHHHHHH
- soluble on expression in E. coli: soluble

Sequence: MVNSSKSILIHAQNKNGTHEEEQYLFAVNNTKAEYPRDKTIHQLFEEQVSKRPNNVAIVCENEQLTYHELNVKANQLARIFIEKGIGKDTLVGIMMEKSIDLFIGILAVLKAGGAYVPIDIEYPKERIQYILDDSQARMLLTQKHLVHLIHNIQFNGQVEIFEEDTIKIREGTNLHVPSKSTDLAYVIYTSGTTGNPKGTMLEHKGISNLKVFFENSLNVTEKDRIGQFASISFDASVWEMFMALLTGASLYIILKDTINDFVKFEQYINQKEITVITLPPTYVVHLDPERILSIQTLITAGSATSPSLVNKWKEKVTYINAYGPTETTICATTWVATKETIGHSVPIGAPIQNTQIYIVDENLQLKSVGEAGELCIGGEGLARGYWKRPELTSQKFVDNPFVPGEKLYKTGDQARWLSDGNIEYLGRIDNQVKIRGHRVELEEVESILLKHMYISETAVSVHKDHQEQPYLCAYFVSEKHIPLEQLRQFSSEELPTYMIPSYFIQLDKMPLTSNGKIDRKQLPEPDLTFGMRVDYEAPRNEIEETLVTIWQDVLGSHHHHHH
- soluble on expression in E. coli: soluble

Sequence: MQDTTLLQMITDDMVSARQLLELLQAESLILHGRDMSEMEQVLAQKQALVILLDQHGRKRSQVLAGMGLPANRSGLQQLASQSEVGEQLLTSSDELNALINECQTLNDQNGSLIQLQQISTAHQLRILNGGETPTLYDARGSTALRAKPRPLSQA
- soluble on expression in E. coli: not soluble

Sequence: MSERIVPSGDVELWSDDFGDPADPALLLVMGGNLSALGWPDEFARRLADGGLHVIRYDHRDTGRSTTRDFAAHPYGFGELAADAVAVLDGWGVDRAHVVGLSMGATITQVIALDHHDRLSSLTMLLGGGLDIDFDANIERVMRGEPTLDGLPGPQQPFLDALALMNQPAEGRAAEVAKRVSKWRILSGTGVPFDDAEYARWEERAIDHAGGVLAEPYAHYSLTLPPPSRAAELREVTVPTLVIQAEHDPIAPAPHGKHLAGLIPTARLAEIPGMGHALPSSVHGPLAEVILAHTRSAA
- soluble on expression in E. coli: soluble

Sequence: MEDKIGTTLTTRTVTGSLTPFIPIQDGDQLLVNGRSQDLYGWIYITELLDVINVYPLSLNNNSIVNFQPGTNIFFQLESSSYSSMRVPVARNVAIGKTTTLKGYVGLPDNAGIKFFDDSSIKK
- soluble on expression in E. coli: not soluble

Sequence: MSLRVRIAVIGKLDGFIKEGIKHYEKFLRRFCKPEVLEIKRVHRGSIEEIVRKETEDLTNRILPGSFVMVMDKRGEEVSSEEFADFLKDLEMKGKDITILIGGPYGLNEEIFAKAHRVFSLSKMTFTHGMTVLIVLEQIFRAFKIIHGENYHYEGGSHHHHHH
- soluble on expression in E. coli: soluble

Sequence: IRQTYEQSCGASSLATLLNILDDQKKFDELELLKIMSGQELYTDMVSFADLNDAVKKLGFQSNSYQINRENLDKLVNIPMLVKIEDDPRFPHFVIIINHKGNYLQVLDPSHGEYISSKSQFFSIWDRYNKGGYALIVAP
- soluble on expression in E. coli: not soluble

Sequence: MKKRNSMKLASLTVLLAGTTLFTPGFTVKAESTQSISNSSKVHDQKNRNGWKQVMQETIKIGAPGVLAKTSNKGKISSYTAGVADLSTKKPVKSDYRFRIGSVTKTFTATTVLQLVGENRVQLDDSIEKWLPGLIQGNGYDGNQITIRQLLNHTSGIAEYLKSKDADIMNSKKTYTAEEIVKIGLALPSDFSPGKGWSYSNTGYVILGMLIEKITGNSYAEEIEKRIIEPLDLPNTFLPGNSPVIPGKNHARGYVKMEETGELKDITYYNPSLANAAGDMISNADDLNKFFSSLLGGKLLKERELKEMLTTVPIEGKGIGDGYGLGIYETKLPNGVSVWGHGGSIPGFMTFAGGVIGGKHTFAVNVNSLGPVDILTQFDKMMQVEFNK
- soluble on expression in E. coli: not soluble

Sequence: MVRAPIDGIVANRSAHTGSWVEGGTSLVSLVPVSELWVDANYKENQIAGMKPGMKAEIRADILKGEVFHGHIESLSPATGASFSLIPIENATGNFTKIVQRVPVRIAFDDAKELKQLLRPGLSVTVSVDER
- soluble on expression in E. coli: not soluble

Sequence: SLPKLHMFYLGGNAGRSNIEVHDIQFAVCDDYREAVPALKAAWFGDADKIHIDGWQVVEWADGYDIAVSETPKTKMPSENAPRLYFANVGGYRAGQLAEAHAFGLFAAATPAEAKQKALQTLLTDSYVQQHKDNLKDVDNLLALDRIGNFHIRLTPNPHGKPAEIGFQGYLPI
- soluble on expression in E. coli: soluble

Sequence: MLAKRIIPCLDVDKGRVVKGVKFLNLRDAGDPVEVAKRYEEEGADELVFLDITASAEDREIMIDVVKKVAETVFMPFTVGGGIRSLEDMRRLLEAGADKISINTAAVKNPNLIYEGAKRFGSQCIVVAIDAKRKGNSWEVYIHGGRTPTGLDAVEWAKKVESLGAGEILLTSMDRDGTKDGYDIELNRAISEAVNIPVIASGGAGKKEHFYEVFSKTKVEAALAASVFHFREISIPELKEYLLERGINVRPLD
- soluble on expression in E. coli: soluble

Sequence: MLKLQTLQALICIEEVGSLRAAAQLLHLSQPALSAAIQQLEDELKAPLLVRTKRGVSLTSFGQAFMKHARLIVTESRRAQEEIGQLRGRWEGHITFAASPAIALAALPLALASFAREFPDVTVNVRDGMYPAVSPQLRDGTLDFALTAAHKHDIDTDLEAQPLYVSDVVIVGQRQHPMANATRLAELQECRWAFSSAPRGPGAIIRNAFARYGLPEPKLGLVCESFLALPGVVAHSDLLTTMPRTLYERNAFKDQLCSIPLQDALPNPTIYVLRRHDLPVTPAAAGLIRWIQHHALQTGHHHHHH
- soluble on expression in E. coli: soluble

Sequence: MNRREVRCAFSASKAARAQLLLRGKVRLEPLPTRPRTVLGLDASYSAKDGVGVGAAVLISLETLEPVDCRVYISRVCIPYIPGLLAFRELAVMAPAAAALSAEADVVMVDGHGIAHPRRFGIASHVGVILERPSIGVAKKKLVGTLVEGPGGMYVVQDGERLAIVLGTRPREVYVSPGHRITLEEAASIARATIRPGGWMPEPTRLADVISKALKTIIGGQSLINSALASLCRVKLGPRLEELERPLRRAGLEVELEHHHHHH
- soluble on expression in E. coli: not soluble
